US9890400B2, “Method of production of 2,4-dihydroxybutyric acid” (ADISSEO FRANCE S.A.S., priority 2012, dated 2018)
Substitutions are numbered along the chain they refer to. In names and notes the source's numbering stands.

B1: YqhD: alcohol dehydrogenase of E. coli, SEQ ID No. 185 (protein, listed as Escherichia coli)
chain: MNNFNLHTPTRILFGKGAIAGLREQIPHDARVLITYGGGSVKKTGVLDQVLDALKGMDVLEFGGIEPNPAYETLMNAVKLVREQKVTFLLAVGGGSVLDGTKFIAAAANYPENIDPWHILQTGGKEIKSAIPMGCVLTLPATGSESNAGAVISRKTTGDKQAFHSAHVQPVFAVLDPVYTYTLPPRQVANGVVDAFVHTVEQYVTKPVDAKIQDRFAEGILLTLIEDGPKALKEPENYDVRANVMWAATQALNGLIGAGVPQDWATHMLGHELTAMHGLDHAQTLAIVLPALWNEKRDTKRAKLLQYAERVWNITEGSDDERIDAAIAATRNFFEQLGVPTHLSDYGLDGSSIPALLKKLEEHGMTQLGENHDITLDVSRRIYEAAR
B2: YPR1: methylbutyraldehyde reductase from Saccharomyces cerevisiae, SEQ ID No. 14 (protein, listed as Saccharomyces cerevisiae)
chain: MPATLKNSSATLKLNTGASIPVLGFGTWRSVDNNGYHSVIAALKAGYRHIDAAAIYLNEEEVGRAIKDSGVPREEIFITTKLWGTEQRDPEAALNKSLKRLGLDYVDLYLMHWPVPLKTDRVTDGNVLCIPTLEDGTVDIDTKEWNFIKTWELMQELPKTGKTKAVGVSNFSINNIKELLESPNNKVVPATNQIEIHPLLPQDELIAFCKEKGIVVEAYSPFGSANAPLLKEQAIIDMAKKHGVEPAQLIISWSIQRGYVVLAKSVNPERIVSNFKIFTLPEDDFKTISNLSKVHGTKRVVDMKWGSFPIFQ
B3: H39R N43H: M. sedula succinic semialdehyde reductase double mutant H39R N43H, SEQ ID No. 36 (protein, listed as Metallosphaera sedula)
chain: MKAAVLHTYKEPLSIEDVNISQPKAGEVKIKVKATGLCRSDVHVFEGKTPVPPPVVAGHEISGIVEEVGPGVTRVKPGDRVISAFIHPCGKCGNCVAGKENLCETFSQVRLKGVMPDGTSRLSKDGKEIRTFLGGGFAEYAIVGENALTRVPEDMDLEKVAVLGCAGLTGYGAISSSKIEPGDTVAVIGVGGVGLSTIQLLRASGAGRIIAVGTKKWKLDRAMELGATDVVNSKEIDPVKAIKEITGGGPQVVIEAGGNEDTIHMALDSVRIGGKVVLVGLPPATAMIPIRVASIVRGGIEVVGNYGGRPRVDMPKLLELVRQGRYDPSRLVTGRFRLEEINEAVKMLEEGEAIRSLIIP
B4: Ms-SSR: succinic semialdehyde reductase from Metallosphaera sedula, SEQ ID No. 16 (protein, listed as Metallosphaera sedula)
chain: B3 chain with R39H, H43N
B5: 4hbdh: 4-hydroxybutyrate dehydrogenase of P. gingivalis, SEQ ID No. 187 (protein, listed as Porphyromonas gingivalis)
chain: MQLFKLKSVTHHFDTFAEFAKEFCLGERDLVITNEFIYEPYMKACQLPCHFVMQEKYGQGEPSDEMMNNILADIRNIQFDRVIGIGGGTVIDISKLFVLKGLNDVLDAFDRKIPLIKEKELIIVPTTCGTGSEVTNISIAEIKSRHTKMGLADDAIVADHAIIIPELLKSLPFHFYACSAIDALIHAIESYVSPKASPYSRLFSEAAWDIILEVFKKIAEHGPEYRFEKLGEMIMASNYAGIAFGNAGVGAVHALSYPLGGNYHVPHGEANYQFFTEVFKVYQKKNPFGYIVELNWKLSKILNCQPEYVYPKLDELLGCLLTKKPLHEYGMKDEEVRGFAESVLKTQQRLLANNYVELTVDEIEGIYRRLY

Assay: Test for malate semialdehyde reductase (DHB dehydrogenase) activity
Assay type: biochemical
Settings: for Activity on malate semialdehyde (cofactor NADPH) / Activity on malate semialdehyde (cofactor NADH): 10 mM malate semialdehyde, 30° C., average of at least two experiments
Description: Test for Malate Semialdehyde Reductase Activity: (L)-Malate semialdehyde+NAD(P)H→(L)-2,4-dihydroxybutyric acid+NAD(P) Reaction scheme:
The assay mixture contained 200 mM Hepes (pH 7.5), 50 mM KCl, 5 mM MgCl2, 0.24 mM NADH or NADPH, and appropriate amounts of purified enzyme or cell extract. Reactions were started by adding 10 mM (L)-malate semialdehyde (malate semialdehyde was prepared freshly for each test, see Example 3). Enzymatic assays were carried out at 30° C. in 96-well flat bottomed microtiter plates in a final volume of 250 μL. The reactions were followed by the characteristic absorption of NAD(P)H at 340 nm (εNADPH=6.22 mM^−1 cm^−1) in a microplate reader (BioRad 680XR).

Molecule	Activity on malate semialdehyde (cofactor NADPH)	affinity for malate semialdehyde compared to the wild type enzyme (in words)	Activity on malate semialdehyde (cofactor NADH)
B1	1.2 μmol/(min * mg_prot)		
B2	0.19 μmol/(min * mg_prot)		
B3		improved affinity	
B4	4.9 μmol/(min * mg_prot)		4.9 μmol/(min * mg_prot)
B5			33 μmol/(min * mg_prot)
